# Experimental data: patent publication US20230108494
# B1: 20S core particle (20S CP) of the proteasome, purified (enzyme, part only; not given: other 20S alpha and beta subunits)
# chain: TTTLAFKFRHGVIVAADSRATAGAYIASQTVKKVIEINPYLLGTMAGGAADCSFWERLLARQCRIYELRNKERISVAAASKLLANMVYQYKGMGLSMGTMICGWDKRGPGLYYVDSEGNRISGATFSVGSGSVYAYGVMDRGYSYDLEVEQAYDLARRAIYQATYRDAYSGGAVNLYHVREDGWIRVSSDNVADLHEKYSGSTP
# What was measured:
# [1] = tested on: T1, TAS1 (Rh-based peptide/peptoid hybrid probe, Leu-Leu-Val-Tyr-Rh110-peptoid)
# T1 sequence: LLVY
# [2] = tested on: T2, library peptide Leu-Leu-Val-Ala-Ala-Ala (negative control)
# T2 sequence: LLVAAA
protein,measurement,setting,value
B1,"Rate of Hydrolysis (ΔRFU/min), probe at 30 µM with purified 20S CP",[1],83.2 ΔRFU/min
same,"percent cleavage by LC/MS, 12 µM peptide with 9 nM 20S CP for one hour",[2],less than 10% of the peptide cleaved
